Measured values as given in the supplement of paper PMC10567573.

B1: ZNF449 (parent)
chain: HKKKSPGEKPHRCPQCGKCFARKS
B2: TCEB3B (parent)
chain: STTALGDKQRKANESKGTRESWDS

Variants of: B1
Test: protein stability index of a GFP-peptide fusion (GPS, HEK-293T) (PSI 1-6); higher = more stable
Conditions: c terminus: a fixed tail appended
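Note: lentivirally expressed fusions sorted by FACS into six bins by GFP to DsRed ratio, PSI derived from sequencing read proportions per bin multiplied by bin number.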

Row | Variant | protein stability index
1 | G7F | 3.53
2 | G7M | 3.46
3 | G7Y | 3.55
4 | G7Q | 3.2
5 | G7A | 3.46
6 | G7N | 3.52
7 | G7S | 3.36
8 | G7I | 2.94
9 | G7V | 3.76
10 | G7T | 3.58
11 | G7P | 4.25
12 | K2I | 2.98
13 | K2S | 3.19
14 | K2W | 3.04
15 | K2P | 3.46
16 | K2A | 3.42
17 | K2N | 3.78
18 | K2M | 2.52
19 | K2Y | 2.37
20 | K2H | 3.27
21 | K2F | 3.32
22 | K2G | 3.43
23 | K2C | 3.21
24 | K2D | 2.92
25 | K2L | 3.41
26 | K2Q | 3.36

Row | Variant | protein stability index
27 | K2T | 3.03
28 | K2V | 3.25
29 | P6V | 2.98
30 | P6G | 4.52
31 | P6F | 3.36
32 | P6Y | 3.94
33 | P6Q | 3.57
34 | P6N | 3.44
35 | P6T | 4.38
36 | P6D | 2.73
37 | P6R | 3.51
38 | P6K | 3.39
39 | P6E | 3.4
40 | P6W | 3.05
41 | P6I | 3.19
42 | K4V | 3.66
43 | K4M | 3.37
44 | K4L | 4.2
45 | K4G | 3.13
46 | K4W | 2.98
47 | K4H | 3.41
48 | K4T | 3.89
49 | K4R | 4.01
50 | K4S | 3.14
51 | K4Q | 2.84
52 | K4P | 3.72

Row | Variant | protein stability index
53 | K4Y | 2.33
54 | K4A | 2.87
55 | K4F | 3.52
56 | K4C | 3.75
57 | C13I | 4.05
58 | C13N | 4.95
59 | C13T | 4.67
60 | C13R | 3.91
61 | C13W | 3.15
62 | C13E | 4.34
63 | C13S | 4.4
64 | C13V | 4.69
65 | C13M | 4.82
66 | C13H | 4.07
67 | C13D | 4.36
68 | C13Q | 3.88
69 | C13F | 2.71
70 | C13K | 4.26
71 | K3V | 3.51
72 | K3T | 2.07
73 | K3G | 3.33
74 | K3Q | 3.14
75 | K3D | 2.5
76 | K3Y | 2.02
77 | K3W | 3.1
78 | K3A | 3.73

Row | Variant | protein stability index
79 | K3L | 3.46
80 | K3M | 3.42
81 | K3P | 3.12
82 | K3F | 3.19
83 | K3H | 4.24
84 | K3R | 3.46
85 | K3I | 3.15
86 | P14F | 2.72
87 | P14A | 3.01
88 | P14E | 3.79
89 | P14H | 3.26
90 | P14I | 3.62
91 | K9L | 2.42
92 | K9Y | 3.75
93 | K9F | 3.38
94 | K9M | 4.23
95 | K9N | 4.35
96 | K9W | 3.66
97 | K9H | 2.57
98 | K9R | 3.94
99 | E8L | 3.01
100 | E8P | 3.63
101 | E8C | 3.64
102 | E8W | 3.36
103 | E8Y | 3.9
104 | E8M | 2.93

Row | Variant | protein stability index
105 | E8A | 3.41
106 | E8V | 3.79
107 | E8N | 2.75
108 | E8Q | 2.99
109 | E8D | 3.81
110 | E8K | 3.57
111 | E8I | 3.17
112 | E8R | 3.99
113 | E8H | 3.92
114 | E8F | 3.14
115 | S5E | 3.7
116 | S5Y | 3.55
117 | S5P | 2.71
118 | S5N | 3.88
119 | S5Q | 3.84
120 | S5H | 3.32
121 | S5L | 3.23
122 | S5A | 4.1
123 | S5I | 3.26
124 | S5F | 3.4
125 | S5V | 2.77
126 | S5M | 3.18
127 | P10N | 3.3
128 | P10S | 3.86
129 | P10A | 4.54
130 | P10F | 3.15

Row | Variant | protein stability index
131 | P10C | 2.56
132 | P10E | 3.52
133 | P10M | 4.07
134 | P10T | 3.83
135 | P10L | 4.06
136 | P10Q | 3.09
137 | P10K | 4.63
138 | P10R | 3.31
139 | P10V | 3.65
140 | P10D | 3.74
141 | P10I | 3.58
142 | R12Y | 3.3
143 | R12Q | 3.19
144 | R12S | 4.11
145 | R12H | 3.59
146 | R12T | 2.74
147 | R12K | 3.98
148 | R12W | 2.68
149 | R12N | 3.92
150 | R12F | 2.56
151 | R12P | 2.74
152 | R12G | 3.1
153 | R12L | 3.85
154 | H1K | 3.5
155 | H1T | 2.88
156 | H1S | 4.38

Row | Variant | protein stability index
157 | H1N | 4.13
158 | H1R | 3.53
159 | H1G | 3.68
160 | H1V | 3.15
161 | H1A | 3.37
162 | H1Y | 3.16
163 | H1I | 2.06
164 | H1D | 3.73
165 | H1W | 2.7
166 | H1C | 3.85
167 | H1L | 2.54
168 | H11C | 4.53
169 | H11D | 3.21
170 | H11E | 4.17
171 | H11N | 3.41
172 | H11W | 3.54
173 | H11L | 3.19
174 | H11G | 3.57
175 | H11Y | 3.02
176 | H11T | 3.49
177 | H11A | 3.42
178 | H11M | 3.18
179 | H11K | 3.28
180 | H11R | 3.08

Variants of: B2
Test: as above
Conditions: c terminus: a fixed tail appended

Row | Variant | protein stability index
181 | K16Y | 3.6
182 | K16W | 3.13
183 | R19D | 5.16
184 | R19L | 4.5
185 | R19T | 4.89
186 | R19V | 5.14
187 | R19K | 4.21
188 | R19F | 3.86
189 | R19N | 4.58
190 | R19I | 4.58
191 | R19S | 4.94
192 | R19P | 4.84
193 | R19W | 4.17
194 | R19A | 4.95
195 | R19H | 4.4
196 | R19G | 4.68
197 | R19E | 5.27
198 | R19Y | 3.37
199 | R19Q | 4.49
200 | R19C | 4.67
201 | R19M | 4.8
202 | G17E | 4.78
203 | G17F | 3.97
204 | G17Q | 3.88
205 | G17N | 3.74
206 | G17W | 3.51

Row | Variant | protein stability index
207 | G17V | 3.55
208 | G17I | 2.92
209 | G17K | 3.65
210 | G17T | 3.98
211 | G17M | 3.43
212 | G17A | 3.78
213 | G17S | 3.71
214 | G17D | 4.55
215 | G17P | 4.42
216 | G17H | 3.93
217 | G17R | 3.97
218 | G17Y | 3.93
219 | G17C | 3.8
220 | G17L | 3.21
221 | S21C | 4.57
222 | S21F | 4.18
223 | S21D | 5.1
224 | S21Q | 5.22
225 | S21G | 5.25
226 | S21V | 4.84
227 | S21L | 4.99
228 | S21R | 4.82
229 | S21Y | 5.09
230 | S21A | 5.05
231 | S21T | 3.57
232 | S21H | 5.02

Row | Variant | protein stability index
233 | S21W | 4.34
234 | S21M | 5.23
235 | S21I | 4.93
236 | S21P | 5.24
237 | S21N | 5.19
238 | S21E | 4.99
239 | S21K | 4.97
240 | S24D | 4.54
241 | S24A | 4.38
242 | S24H | 3.97
243 | S24M | 4.34
244 | S24Y | 4.46
245 | S24I | 4.26
246 | S24L | 4.37
247 | S24T | 4.58
248 | S24K | 4.17
249 | S24R | 3.94
250 | S24P | 4.99
251 | S24Q | 3.84
252 | S24E | 3.93
253 | S24G | 4.89
254 | S24F | 4.38
255 | S24V | 4.62
256 | S24C | 4.07
257 | S24W | 4.59
258 | S24N | 4.57

Row | Variant | protein stability index
259 | T18M | 3.51
260 | T18Y | 3.8
261 | T18A | 4.15
262 | T18Q | 4.03
263 | T18G | 3.81
264 | T18N | 4.09
265 | T18K | 3.61
266 | T18V | 4.55
267 | T18I | 3.31
268 | T18E | 4.17
269 | T18S | 4
270 | T18P | 3.22
271 | T18R | 3.76
272 | T18H | 3.79
273 | T18D | 4.05
274 | T18C | 4.19
275 | T18L | 3.14
276 | T18F | 3.46
277 | T18W | 3
278 | E20R | 4.2
279 | E20Y | 4.92
280 | E20H | 4.89
281 | E20M | 4.54
282 | E20L | 4.6
283 | E20S | 4.88
284 | E20D | 4.76

Row | Variant | protein stability index
285 | E20V | 4.32
286 | E20K | 5.19
287 | E20Q | 4.38
288 | E20G | 5
289 | E20T | 4.86
290 | E20C | 3.66
291 | E20P | 4.89
292 | E20F | 4.6
293 | E20N | 4.68
294 | E20I | 4
295 | E20W | 4.5
296 | E20A | 4.82
297 | W22V | 5.12
298 | W22C | 5.1
299 | W22E | 5.67
300 | W22I | 5.53
301 | W22Q | 5.47
302 | W22K | 5.7
303 | W22N | 5.83
304 | W22M | 5.53
305 | W22L | 5.25
306 | W22G | 5.53
307 | W22H | 5.45
308 | W22A | 5.29
309 | W22D | 5.42
310 | W22S | 4.29

Row | Variant | protein stability index
311 | W22F | 5.38
312 | W22T | 5.24
313 | W22Y | 5.6
314 | W22P | 5.54
315 | W22R | 5.82
316 | D23S | 1.78
317 | D23A | 4.65
318 | D23I | 2.69
319 | D23G | 2.83
320 | D23Y | 4.07
321 | D23L | 1.98
322 | D23H | 3.81
323 | D23Q | 3.51
324 | D23T | 1.05
325 | D23P | 4.76
326 | D23V | 2.56
327 | D23N | 4.15
328 | D23E | 1.82
329 | D23C | 1.98
330 | D23R | 2.13
331 | D23K | 2.47
332 | D23W | 3.59
333 | D23M | 2.32
334 | D23F | 3.93
